Assay: soluble on expression in E. coli; label from the status in PepcDB or PDB records

Sequence	soluble on expression in E. coli
MTIHQHPHVTDRDAHFVGGGIASLAGAAFLVRDGNMPGENIHVYEKLDVVGGAMDGAGDPDEAYLIRGGRMFNYPAYECTWDLFETIPSLEDDSRSVKAVMDEFNETHPSYAKTRLMHEGERIDAGEYGLTRQHRQSIARLLLTPEPRLGDTRIEEWFDESFLETNFWYVWATIFAFQPWHSVAEVRRYMYRFLHEFPQLHTMEGIDRTKYNQYDSMILPLRRWLEDRGVSFEYGHEVTDMDIVPSRTGRTVERLYCETDSGTETVPVEPSDLVFVTNGSMTDGSSIGGMDEAPELNETGASWELWKSIAEDNPQFGNPSVFADNVTETKWESFTVTLHNTDLFDHIVDFTNEEPGNGLVTYLGSNWLLSTVVAAQPHFANQPDDVKVFWGYALFPDREGNYVEKPMSECTGREILQELCYHLQCEERLPEILDDVTCIPAMMPFITAHFQPREPGDRPDVVPDGSNNLAFLGQYAEQPRDVVFTVEYSVRSAMTAVYEMLDLDREVPPVSKHYRKPGVIADTVRAAYRLEHHHHHH	not soluble
MARLTVHTLETAPEAAKARVEAVLQNNGFIPNLIGVLSNAPEALAFYQEVGKLNAANSLTAGEVEVIQIIAARTNQCGFCVAGHTKLATLKKLLSEQSVKAARALAAGEFDDAKLGALAAFTQAVMAKKGAVSDEELKAFFDAGYNQQQAVEVVMGVALATLCNYVNNLGQTEINPELQAYA	soluble
MKLGFIGLGIMGSPMAINLARAGHQLHVTTIGPVADELLSLGAVNVETARQVTEFADIIFIMVPDTPQVEDVLFGEHGCAKTSLQGKTIVDMSSISPIETKRFAQRVNEMGADYLDAPVSGGEIGAREGTLSIMVGGEQKVFDRVKPLFDILGKNITLVGGNGDGQTCKVANQIIVALNIEAVSEALVFASKAGADPVRVRQALMGGFASSRILEVHGERMINRTFEPGFKIALHQKDLNLALQSAKALALNLPNTATCQELFNTCAANGGSQLDHSAMVQALELMANHKLS	soluble
MGSDKIHHHHHHMMSNTAATVNHSQKVDLFIVGGGMIGSALAARLAPSGMRIALLENHQPAAFDPSSPPDLRVSALSPASIDFLEQAQAWPAIQTMRTAPFKRMQVWENRQDHGTMFDAAEVDAPWLGHIVENRLVQLACLEIVEGYDNVTLLCPGEIGQIAYRPEGSHIRLNSGQIFEATLLIGADGANSQVRKAAGIALDSQQYPMHALVATVAIQGGERDITWQRFTPDGPQSLLPLPGDYASLVWYHRPSEVRRLLTLDDDALLDAFRQHFPAVLPEITGLVRRGSFPLARSHAQAYVRPGVALIGDAAHTIHPLAGQGVNLGFQDAAVLSETLLRAWQTGADLAALPHLQRYERQRKLANLVMQRAMDAFSYGFSNDVAPLRLLRNLGLRFADHTGPIKRQVIRYALGLGPQPSLPLPSGLSKLLP	not soluble
MGSDKIHHHHHHMTLDPDAKLPETEEGTVVYNTDPLIIRSHYEIDYIHSYAQDSEFFRALGRKKLMGSKCKKCGYVYATPRSHCMMCGSETEWYELPLKGRVHTYTTCYFSGEEFLNETPFNLILVEFDGVNSLFMSRLIGAETKDIYIGMPVKAKFRRNLKMNVTDVYFVPDVEK	not soluble
MSLQKPKIAFIDDEPRILRSLKMHFRQSHDVFITTDASELMKYVSEHDVQVVISDQRMPDKQGTEVLRDIKAASPNTLRILLTGYADLNAVIDSVNEGEIYRYITKPWQNDELKQIVNKATEIAQQTQEITQNTEGHHHHHH	not soluble
GSDGDALLKPCKLGDMQCLSSATEQFLEKTSKGIPQYDIWPIDPLVVTSLDVIAPSDAGIVIRFKNLNITGLKNQQISDFQMDTKAKTVLLKTKADLHIVGDIVIELTEQSKSFTGLYTADTNVIGAVRYGYNLKNDDNGVQHFEVQPETFTCESIGEPKITLSSDLSSALEKDSGNNSLEPDMEPLKTLRQAAICKIAEACYISVVHNIRASAKILPASSFFENLN	soluble
MERYVWARFFWQQARDKRGVPRRHVCDTARNNNRRPETGTAFTALCSTTVTPHPDDDDTVKGTCFAPACQVCTILLARAMNWNDGELGQLVQTFHWTHADIALLATALDITRSEARRLLTAWTDAAK	not soluble
SLVIIYDGDSYGISKRIDYMLNSTTSSGKRTGILAIGAHPDDIELGCGASLSYYSNEKVYIISVVMTPGCCGAEYIDRHKESQEALNMLGCNKLIPLNFEDTRLYLQIKEMISSLEYIIENETPQDVEITRVYTMNNTDRHQDHIAVYQASMVACRYIPQILGYETPSTCLSFLPQVFESVDEVHFNKKILALQKHKSQIHRRYIQPEYIIAQAKFRGQQVSHSMCEGFVVHKMVL	soluble
MGSDKIHHHHHHMVDCDRIDRLIAAVPPALALRAGLDLGIFTRLGGDAATADSLGAALKVEPDRLSRLLYALASIDLLEVKDGQFRNGAEASAFLDASKPTYRGGDHALLRELWGADLLTAESLRQNRPAALHDFSEAGPEAAAAFSRMLAPGGVIFGRHLAREIDLSAIGSVIDIGGGAGTILVGLRERRRQIAATLMELPTVAAVAPAILSEYGADDVIVEEGDITVAPSIGRHDLAILKAVVQVLPPDQARNAILNAARCLTPGGEIAIAGWGVVDDDRLGPSEGVFLNLTFLNLYRHGESYTEGQYRAWMTEAGFRNISRSRLTDGTALFRGRLTD	not soluble
MGKRVVYPGTFDPPHYGHLDIVKRSARIFDEVVVAVAKKPRKFLLFDAEERVKMFEKMVEDIPNVEVKMFDCLLVDFMKREGINVIVRGVRLFTDFEYELQIALTNYKLAGVETVFMMPSQEYIHISSTIVRDVASYCGDLDNMVHPYVKQKLREKFNCGS	soluble
MGSDKIHHHHHHMECVFGIDVSKENANVAVLVDNVVIKQFKIGLDRLGFSLLSDELNSFNAPLIIYEATAMYSRRLRAFLQRDGWKYTELNPLAAKKVMEEFRHTKTDALDAVGLARAMIKNHFRPTYQESPVYTELHDLERTYQQFNKDIVTNKNRLHRALQLTFPEIEHFMSSTDGVLYWHIVQRFPHPAIVLSHEENELTEIILTETSKKIGLKRAMKLANRLLALAQNSAPAKEPQSHAVRAVIALAKEVERINQLKAQIIVEMTTLGENLSEVPLLVSIPGIGIKTALCLIAELGDVRRFHSANAINAYIGIDLIRYESGQYEAKMHIRKRGNPYVRKILYRAILNIISVSQYQPTLISANYKRKKQSAQSHGTKKIAIAAMSQFNRLMHHLILNNELYDSTTFMPE	not soluble
MGSDKIHHHHHHMSNIKVLIQASSRSWAGGRDICMGLVNGEITVARTIKRALEAFPAAQLCLVAPEFDQDGELGGVIEYVKDKRLKAFYGFDESPLKRMIAASIELADNDYIVRIDGIHFCFDVDLSQKMLALALQKKLDCIKLPADFPVHFSSEVFRVGALRELVKLLDKPELEKFNIHPKIYFELNRYNYNFEYLRTLPQYSDEYLSECRKLAKDIYDIPRLEVGSKRTIWADTPSYHYQLALEYLNSNMKVLDIACGNGYGVRMMSTFLAEVHGADLDPEIINLAKAYTHEKNVEYYIEDITNLSFEDDSYDAVTCFETLEHIPEDDCLKELRRIIRPGGMLVLSTPQNSYGHIPVNACHIVEYSLDALLKLVGRYFLVVKVIGIKAGTIHSDADPYGTNTVLVCIKPF	not soluble
SLNFRAEDLASGILRERVKVGASLADVDPMNIDKSVRFDSIGGLSHHIHALKEMVVFPLLYPEIFEKFKIQPPRGCLFYGPPGTGKTLVARALANECSQGDKKVAFFMRKGADCLSKWVGESERQLRLLFDQAYLMRPSIIFFDEIDGLAPVRSSRQDQIHSSIVSTLLALMDGLDNRGEIVVIGATNRLDSIDPALRRPGRFDREFLFNLPDQKARKHILQIHTRDWNPKLSDAFLGELAEKCVGYCGADIKALCTEAALIALRRRYPQIYASSHKLQLDVSSIVLSAQDFYHAMQNIVPASQRAVMSSGHALSPIIRPLLERSFNNILAVLQKVFPHAEISQSDKKEDIETLILEDSEDENALSIFETNCHSGSPKKQSSSAAIHKPYLHFTMSPYHQPTSYRPRLLLSGERGSGQTSHLAPALLHTLERFSVHRLDLPALYSVSAKTPEESCAQIFREARRTVPSIVYMPHIGDWWEAVSETVRATFLTLLQDIPSFSPIFLLSTSETMYSELPEEVKCIFRIQYEEVLYIQRPIEEDRRKFFQELILNQASMAPPRRKHAALCAMEVLPLALPSPPRQLSESEKSRMEDQEENTLRELRLFLRDVTKRLATDKRFNIFSKPVDIEEVSDYLEVIKEPMDLSTVITKIDKHNYLTAKDFLKDIDLICSNALEYNPDKDPGDKIIRHRACTLKDTAHAIIAAELDPEFNKLCEEIKEARI	soluble
MGSDKIHHHHHHMDLRSDALQILKDTSRTFYIPISILPSGLQEAVASAYLCMRAIDEIEDHPTLDNPTKAKLLRGISLTLQAGVDGFPVDAFAAGFSGYENTLAEVTMRIREWSLLAPETIAPRIWDATAAMSDRMAYWAENNWKIYTESDLDRYTFGVAGAVGLLLSDLWTWYDGTQTNRTLAIGFGRGLQAVNILRNHVEDLGRGVSFFPDGWDANNMQEYALRNLALADAYTQALPDGPALNFCQIPLTLAHGTIDAIANGKEKLSRNDVMALLEHLITFNLKAG	not soluble
MGSDKIHHHHHHLFAIRDEHLALDIVQDSMMKLVEKYSAKPLEELPLLFQRILQNTIRDFYRRQKTRSLWTTLFSAFIPSDHEKESEDFDLLETLQSDPSSSKVNDPHQQLEQSQLINLLERAIETLPARQREAFLLRYWEEMDVMETAKIMGCSEGSVKTHCSRATHTLAAMLKKHGIGL	not soluble
MIVRFAGRRGVVSTCNLNGGYREDLRYAFNNSCGRDPDVIAKRSVGMRGKTMIEHYAALAEELGLPLDKTTGMGTAALIENTATSSRQYHGVTVMAVATAGIDVNGGRAGEPAAYNEFTQTDLIKPGTINVFLFIDASLDAGTLTRALVTATEAKSAALQELMANSMYSEDLATGSGTDSLIAICNKESEIVLQNSGKHVLLGEMIGQSVKEAITEALSRQTKMTPTRQASIEWQTKRYGITREAIVSECLRLYPHLKKEVVEAGIGGIDRDNRLVAAVAAIAHLCDQNRWQIISDKSMTCTAENILHTILSERGISEEANRKDIVCGQDAPAYRQVLSLCLHTLARILHNRIIHSSL	not soluble
MEDKPTILIMGGSLGLGNIEDIVEMVCHICDESYQIIVVTGKNKTLKKSLEERNFGRKVVVFGFISFIDKLMAISDILITKPGGLTCAEALSCKLPMILISPIPGQEERNTFYLINNGAAAYVKNIESFDIVFNQIINNPQRLEHMKLACSFLAKPLEHHHHHH	not soluble
MEQDDPSGEWPLIAALPVRQDVPVDALLADVAAQLAAEGLRTAGFLQRDGVRLEDLTSGALYPITQDLGPGSSGCRLDPAGLALAAAAGLAALERGADLLVIPRFGKAEIEGEGMRGVIGRACELGVPTLVGVRQSAEPAWETFAGGLAEWIAPERQAVAGWCRTACAPVRCRTLEHHHHHH	not soluble
GSPALDTGTTEEDRLKIDVIDWLVFDPAQRAEALKQGNAIMRKFLASKKHEAAKEVFVKIPQDSIAEIYNQCEEQGMESPLPAEDDNAIREHLCIRAYLEAHETFNEWFKHMNSVPGGSGGSWKGHLDALTADVKEKMYNVLLFVDGGWMVDVREDAKEDHERTHQMVLLRKLCLPMLCFLLHTILHSTGQYQECLQLADMVSSERHKLYLVFSKEELRKLLQKLRESSLMLLDQGLDPLGYEIQL	soluble
RPVWYGDPISTSTSHRDLMLVVDLSYSMSQEDMQSGQQMVDRLTAVKQVLSEFIAKREGDRIGLILFADHAYLQTPLTLDRQTVANQLNQTVLKLIGTQTAIGEGIGLATKTFIDSDAPQRVMILLSDGSNTAGVLDPLEAANIAKQYNTTIYTVGVGAGEMVVKDFLFSRKVNTAQDLDEKTLQTIATTTGGHYFRARNQQDLQNIYDTINQLEPISQSN	not soluble
MPIIRPEELPKLMRTISMSNLSIPTRCLLEWQLLTLIRPAEASATAWSEIDIENKQWCIPAERMKAKRDHIVPLSEQALELLEIMRPISGNRQYVFPSRNDPRKPMNSQTANAALKRIGYSGKLVAHGLRSIASTAMNEAGFNADVIEAALAHSDKLEHHHHHH	not soluble

Source: the DeepSol protein solubility set
